We go through 1 protein from PMC2914686.

Substrate in the series: C[S+](CC[C@H](N)C(=O)[O-])C[C@H]1O[C@@H](n2cnc3c(N)ncnc32)[C@H](O)[C@@H]1O
The experiment in a line: Michaelis-Menten kinetics. It counts as biochemical, Homo sapiens.

B1: G9a (Homo sapiens) (protein)
chain: NRAIRTEKIICRDVARGYENVPIPCVNGVDGEPCPEDYKYISENCETSTMNIDRNITHLQHCTCVDDCSSSNCLCGQLSIRCWYDKDGRLLQEFNKIEPPLIFECNQACSCWRNCKNRVVQSGIKVRLQLYRTAKMGWGVRALQTIPQGTFICEYVGELISDAEADVREDDSYLFDLDNKDGEVYCIDARYYGNISRFINHLCDPNIIPVRVFMLHQDLRFPRIAFFSSRDIRTGEELGFDYGDRFWDIKSKYFTCQCGSEKCKHSAEAIALEQSRLARLD
Turning to B1, the Michaelis-Menten constant (Km) was determined as 31.7 µM.
